Measured values: the RNAGym collection of RNA variant scans (doi:10.1101/gr.219683.116)

B1: mRNA-splicing (parent)
chain: AGUUGCUGCUGGGAGCUCCAGCACAGUGAAAUGGACAGAAGGGCAGAGCAA

Variants of: B1
Test: exon inclusion enrichment index; higher = more inclusion; WT1 exon 5 minigene, HEK293

Variant | exon inclusion enrichment index
G5A U7C G8A U10C G26U U27G | 3.47
G5A U7C G8A U10C C36U A37G | 2.16
G5A C6G U7G C9A G38A A39G | 0.000899
G5A C6G U7G C9A G38A A39C | 0.0024
G5A U7C G8A U10C C24U | 0.763
G5U | 0.103
C6A U7A C9A U10A C19U A20C | 0.579
C6A U7A C9A U10A G42A | 1.81
G5C C6U G8C C9U U10C C16A U17A | 1.38
G5U G8U C9U A30U | 0.0559
C6A U7C C9A U10C C16U U17A | 2.9
C6A U7A C9A U10A G12C | 2.21
G5C C6A U7C G8A U10A U27A G28A | 0.112
A20C G21C | 0.634
G5C C6U G8C C9U U10C C19U A20C | 0.957
G5A C6G U7G C9A G12C G13U | 0.000686
G5A C6U U7A | 0.0138
G5A C6U U7C C9A U10C | 2.91
C6A U7A C9A U10A A20G | 1.05
G5A U7C G8A U10C A29U | 0.801
G15C C16G | 0.178
G15C C16A | 0.0306
G5A C6U U7A G8U C9A A25U G26A | 0.0732
G5U G8U C9U U27G G28U | 0.000678

Variant | exon inclusion enrichment index
G5C C6G U7C U10C A39C | 1.45
G5U G8U C9U G15A C16G | 0.043
G5A C6G U7G C9A G43C C44G | 0.0277
C6A U7A C9A U10A C24U A25C | 2.5
G5U G8U C9U A39C A40G | 0.162
C6A U7A C9A U10A G34C | 0.179
G5C C6U G8C C9U U10C G34U A35C | 0.683
C6A U7A C9A | 1.65
G5U G8U C9U U17A | 0.136
C6A U7A C9A U10A G26C U27A | 0.842
G5U G8U C9U A47G G48U | 0.00268
G5A U7G C9A | 1.5
G11A G12U | 0.888
G5A C6G U7G C9A C18U | 0.000744
G5A U7C G8A U10C G46U | 1.6
C6A U7C C9A U10C A37G G38C | 3.21
G2C G5A U7C G8A U10C | 2
G5A U7C G8A U10C C24G A25U | 2.8
C6A U7A C9A U10A A40U G41C | 1.33
G5C C6A U7C G8A U10A G15C C16G | 0.0998
G5C C6A U7C G8A U10A G12A G13C | 0.0982
G5C C6U G8C C9U U10C A47U G48U | 1.45
G5A C6G U7G C9A A47U G48A | 0.00057
G5C C6U G8C C9U U10C G15U C16A | 1.38

Variant | exon inclusion enrichment index
G5C C6G U7G C9A | 1.02
G5C C6G U7C U10C G46A | 3.39
G5C C6U G8C C9U U10C G46C A47U | 1.64
G21A C22G | 2.36
C6A U7A C9A U10A C36U | 0.122
C6A U7A C9A U10A C36A | 0.531
G5C C6A U7C G8A U10A A35C | 0.0232
G33A | 0.0129
C6A U7C C9A U10C A25C | 4.45
G5C C6G U7C U10C G38U | 1.34
G5U G8U C9U G46U A47U | 0.164
G5U G8U C9U A31C U32C | 0.544
C6A U7A C9A U10A C19G A20C | 1.03
G5A U7C G8A U10C G21C C22G | 3.61
G5C C6U G8C C9U U10C C16U U17A | 1.65
G5C C6G U7C C9A | 2.73
C6A U7A C9A G11A | 0.721
G5A C6U U7A G8U C9A G42A G43C | 1.53
G5A C6G U7G C9A C16U | 0.000705
G5C C6A U7C G8A U10A C22G A23G | 0.043
G5C C6A U7C G8A U10A C22G A23U | 0.0222
G5U G8U C9U G15C C16A | 0.0947
G5A U7C G8A U10C G34A A35C | 1.83
G5A C6U U7A G8U C9A A31U U32C | 0.168

Variant | exon inclusion enrichment index
C6A U7A C9A U10A G15A C16A | 0.363
G5A C6G U7G G8A C9A | 0.00786
C6A U7C C9A U10C A31G U32C | 4.39
G28A A29U | 0.00899
G5C C6G U7C U10C A20G | 0.887
G5U C6G G8C C9U U10C | 1.09
G5A U7C G8A U10C G33U G34C | 0.815
C6A U7C C9A U10C C36A A37G | 1.73
C6A U7C C9A U10C C36A A37U | 2.17
U10A G11C | 2.77
C16U U17A | 0.0567
A20U G21U | 1.91
G2U U3G | 0.359
C6U U7G C9A U10A | 0.189
G5C C6A U7C G8A U10A G26C U27A | 0.076
G5A C6U U7A G8U C9A C36G A37C | 0.0098
G5C C6A U7C G8A U10A C36G A37U | 0.0414
G5A C6U U7A G8U C9A U27A G28C | 0.126
G5U C6U U7C G8A U10C | 1.85
G5C C6G U7C U10C G41U G42A | 1.45
G5A C6U U7A G8U C9A C22A | 0.0781
C6A U7C C9A U10C G11C | 3.61
C6A U7A C9A U10A A39C | 0.201
G5A C6U U7A G8U C9A C36A A37U | 0.0158

Variant | exon inclusion enrichment index
G5A U7C G8A U10C G33C G34A | 1.53
G5A U7C G8A U10C A39U A40C | 2.41
G5A U7C G8A U10C G42U G43U | 3.03
G5A U7C G8A U10C G42U G43C | 1.5
G5A C6A G8U C9U | 0.0445
G5C C6A U7C G8A U10A A39C A40C | 0.334
U4C G5C C6U U7A G8U C9A | 0.704
G5C C6G U7C U10C G42C G43C | 3.63
G5C C6U G8C C9U U10C C44G | 2.79
G5U G8U C9U A25G G26C | 0.74
G5C C6A U7C G8A U10A G42U G43U | 0.305
C24A A25U | 0.16
G5C C6U G8C C9U U10C A40U G41A | 0.0602
G5C C6U G8C C9U U10C G12C G13U | 0.036
G5C U7A C9A U10A | 0.367
G5C C6A U7C G8A U10A A47U | 0.108
G5C C6A U7C G8A U10A A47C | 0.232
G5A C6U U7A G8U C9A G12A G13A | 0.027
G5A C6U U7A G8U C9A C36U | 0.00462
G5C C6A U7A G8U C9A | 0.415
G5A C6G U7G C9A A25G G26C | 0.0234
G5U G8A | 1.23
G5A C6G U7G C9A G26A U27C | 0.0139
G5C C6G U7C U10C G28A A29U | 1.28

Variant | exon inclusion enrichment index
G5A C9A | 0.851
C6A U7A C9A U10A | 0.801
C6A U7A C9A U10A C16G U17A | 0.533
C6A U7C C9A U10A G11U | 2.49
G5A C6U U7A G8U C9A A31U | 0.0565
C6A U7A C9A U10C G11U | 3.37
G5A C6U U7A G8U C9A G48C | 0.13
G5A C6U U7A G8U C9A G13A A14U | 0.189
G5A C6U U7A G8U C9A G13A A14C | 0.394
G5A C6U U7A G8U C9A U10C G11U | 0.148
G5C C6G U7C U10C C18G | 3.71
G5A C6G U7G G8C C9G | 0.0513
G38C A39U | 0.00812
G5C C6U G8C C9U U10C G34A A35C | 1.47
C6A U7C C9A U10C G43C C44G | 4.77
G5C C6U G8C C9U U10C C24U | 0.544
C6A U7C C9A U10C A23U C24A | 1.89
G5A C6G U7G C9A A25C | 0.0135
G5C C6G U7C U10C A30C | 3.57
G5C C6U G8C C9U U10C G41C G42C | 2.99
G5C C6A U7G G8A U10A | 0.0223
A29C A30U | 0.0782
C6A U7C C9A U10C U27G | 2.01
G5C C6U U7A C9A U10A | 0.0605

Variant | exon inclusion enrichment index
C6A U7A C9A U10A A39U A40U | 0.184
C6A U7C C9A U10C G33U G34U | 1.05
G46C | 0.155
G5C C6A U7G G8C U10A | 0.0276
G5A U7C G8A U10C U27G G28C | 1.17
G5A C6U U7A G8U C9A C18A C19A | 0.00553
G5A C6U U7A G8U C9A C18A C19G | 0.00128
A39G A40G | 0.0122
U4G G5C C6A U7C C9A U10C | 2.46
G5A U7C G8A U10G G11U | 2.44
G5A C6G U7G C9A G11C G12C | 0.00959
C6A U7A C9A U10A G28U A29C | 0.539
G5U G8U C9U G13A | 0.0771
G33U G34A | 0.00421
G5A C6U U7A G8U C9G U10C | 0.339
A45G G46C | 0.331
A14U G15C | 0.0264
G5A C6U U7A G8U C9A G41C | 0.435
G5U G8U C9U C22G A23C | 0.0377
C6A U7C C9A U10C U17A C18G | 2.68
C6A U7C C9A U10C U17A C18A | 3.1
G5A C6G U7G C9A A14U G15U | 0.000762
G5A U7C G8A C9G U10C | 1.65
